From publication PMC9250616
Where two headings read alike, the source gives them in different places.

How the values were obtained:
[1] = target: Protective antigen (Bacillus anthracis) (UniProt P13423); details: cited from earlier work
[2] = target: Protective antigen (Bacillus anthracis) (UniProt P13423); details: cited from earlier work; remark: listed apart in the source
Laminin-111 = experiment: ELISA

For CMG2 (from UniProt P58335), the Kd [1] is given as 0.0002 µM.

In the case of TEM8 (from UniProt Q9H6X2), the Kd [2] is given as 0.01 µM.

Substance “biotinylated CMG2-AviTag construct (capillary morphogenesis gene 2, anthrax toxin receptor 2) (from UniProt P58335 34-489)” has a Kd (Laminin-111) of 0.5 µM.
